Measurements published in the supplement of paper PMC9170038.

Tested on: MS2 coat protein
Assay: apparent KD of MS2 coat protein; designed switch direction (-1 OFF switch, 1 ON switch): -1; higher = weaker reporter binding
Method in brief: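 The apparent KD reported per design is the median over clusters of curve fits to normalised cluster fluorescence. The RNA switches were transcribed on Illumina chips by stalled E. coli RNA polymerase. SNAP-549-labelled MS2 coat protein was titrated from 0.7 or 1.5 nM, doubling up to 3 µM, in Tris-HCl pH 7.5 buffer containing KCl, MgCl2, BSA, DTT, tRNA and Tween-20, with no input, 200 uM small-molecule ligand, or an oligonucleotide input.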

[1] = Eterna round: R95, input ligand: FMN 200 uM
[2] = Eterna round: R95, input ligand: microRNA oligo, concentration not stated
[3] = Eterna round: R95, input ligand: none
[4] = input ligand: microRNA oligo, concentration not stated

Sequence | apparent KD of MS2 coat protein [1] | apparent KD of MS2 coat protein [2] | apparent KD of MS2 coat protein [3] | apparent KD of MS2 coat protein (input ligand: FMN 200 uM) | apparent KD of MS2 coat protein (input ligand: none) | apparent KD of MS2 coat protein [4]
GCAGGCGACUAGGCUCGUCUUAUUUUGAGAAGAUUGAAAACAUGAGGAUCACCCAUGUUUGUGGGAGAGUUGGAGUG [JR_SV3TOV2_Sub013] (puzzle: Sensor v3, turn-off variant 2) | 59.4 nM | 73 nM | 65.3 nM | – | – | –
GGGCGUGAAGGAUAUACAUGAGGAUCACCCAUGUGGGAGGAGAAUGGUGAGGAGGCUGGUAGAAGGUCAGGAGG [JR_Exclusion3_Sub009] (puzzle: Exclusion 3) | – | 37.5 nM | – | – | – | –
GUAGAGUCAGGAUAUACGAGAUCGAUAGAUCGGCGAUCCAAACAUGAGGAUCACCCAUGUAGAAGGGACUCUAC [Mat - Exclusion 2 - Eli Mod - D4] (Eterna round: R97, puzzle: Exclusion 2) | – | – | – | 1160 nM | 41.6 nM | –
AGCUAGUGCCGAGGAUAUACAUGAGGAUCACCCAUGUAGGCCAGUCGGUUUCUGACUGGCGAGAUGUAGAAGGCGGCGUUGGCA [JL ENG2 1.51] (Eterna round: R96, puzzle: Exclusion NG 2) | – | – | – | 49 nM | 15.6 nM | 12.6 nM
UGAUCACAUGAGGAUCACCCAUGUCAGGAUAUCUACAUUGAAGCUUCGGCUUCAAUGUAGAGAAGGGACAUAAU [E1/3-B1] (Eterna round: R97, puzzle: Exclusion 1) | – | – | – | 115 nM | 175 nM | –
GAAAAGGUAGGAUAUACGAAAAGAAAGGGUAGAAGAAGAACACAUGAGGAUCACCCAUGUAGAAGGACCAAAAG [Mat - Exclusion 2 - Mod of my Tesla design - D1] (puzzle: Exclusion 2) | 73.1 nM | 18.5 nM | 16.5 nM | – | – | –
GACGCUGACCGAGGAUAUACAAUAAAACAACAAACACCUCGUGUCAGAACAUGAGGAUCACCCAUGUAGAAGGCGGCAGGUCUA [Teateus] (Eterna round: R96, puzzle: Exclusion NG 2) | – | – | – | – | – | 31.6 nM
UUUUUAUAUGAAGGAUAUACUUAACAUGAGGAUCACCCAUGUGGUGUUGUGAGUGAGUGAGUUUAGUAGAAGGUCAAGGAUUUU [JMF's solution 35] (Eterna round: R96, puzzle: Exclusion NG 2) | – | – | – | 598 nM | 161 nM | 456 nM
UUAGCGCGAGGAUAUGCGGUUUGUGCUUUGGGCCCUGGCGUACAUGAGGAUCACCCAUGUAGAAGGCGUGUUGU [Apr-15 SS2-50] (puzzle: Exclusion 2) | – | 20.7 nM | – | – | – | –
CCGUGCACGCUGCGGUCCUACAUGAGGAUCACCCAUGUGGUCCGGUGGCGUGGGUCGCCGGACUUGGCUCGUCUUGU [salish99_S_TOV1_R5_017] (Eterna round: R97, puzzle: Sensor, turn-off variant 1) | – | – | – | 35.1 nM | 37.6 nM | –
CCGGUUCAUUAGGAUAUGCAGGUGAACGGUGCCGUAGAAGGAAUGACAUGAGGAUCACCCAUGUAGAGGAAGUG [Eternabot (L2) Solution 82] (Eterna round: R97, puzzle: Exclusion 6) | – | – | – | 36.8 nM | 55.1 nM | –
AGUACUAACACGAAAGUGUUAGUGCAAUAAGCUUGUGAAACAUGAGGAUCACCCAUGUCCUCAUAAGCUCGUCUUAU [salish99_TOv2_r3_039] (puzzle: Sensor v3, turn-off variant 2) | 15.6 nM | 582 nM | 16.2 nM | – | – | –
CUAGCGGGUGUAGGAUAUCGGACUGUUUCAGUCUGAGAAGGACAUGAGGAUCACCCAUGUAUUGCUGCGUGAGUAGCACGCUAG [JL ENG1 3.98] (Eterna round: R96, puzzle: Exclusion NG 1) | – | – | – | 46.8 nM | 34.1 nM | 23.4 nM
GUGUAGAUAGGAUAUGCAUGAGUCUAGCGAAGCUAGGCUCUACAUGAGGAUCACCCAUGUAGAAGGGUCUACAC [Dot plot directed A v13] (puzzle: Exclusion 2) | – | 18.6 nM | – | – | – | –
CCGUAACAUGAGGAUCACCCAUGUUAGGAUAUGUAGCGCUGGGCAUCCUCAGCUGGUUAUAGAAGGGACGAGGG [Eternabot (L2) Solution 15] (Eterna round: R97, puzzle: Exclusion 1) | – | – | – | 73.7 nM | 111 nM | –
CGAGACGGAGGAUAUACAUGAGGAUCACCCAUGUUAAACCACGGGUAGCCUUCGGUCGGUAGAAGGCCGCAUCG [Eternabot (Original) Solution 47] (Eterna round: R97, puzzle: Exclusion 3) | – | – | – | 86.7 nM | 21.2 nM | –
GAAUACAAGCAAAGAUCCUACAUGAGGAUCACCCAUGUGCUCGUCUUGUAAAGUACUAUCACGAAAGUGAUAGUACA [Mat - Sensor v3 - turn-off var 1 - Eli Mod - D78] (puzzle: Sensor v3, turn-off variant 1) | 76.7 nM | 16.9 nM | 60.1 nM | – | – | –

Sequence | apparent KD of MS2 coat protein [1] | apparent KD of MS2 coat protein [2] | apparent KD of MS2 coat protein [3] | apparent KD of MS2 coat protein (input ligand: FMN 200 uM) | apparent KD of MS2 coat protein (input ligand: none) | apparent KD of MS2 coat protein [4]
GGGCAAUUAGGAUAUACAUGAGGAUCACCCAUGUGGAAGCCCGGACAGGUAAUCCACUGUAGAAGGGAUUGCGG [Userqube] (puzzle: Exclusion 3) | – | 13.5 nM | – | – | – | –
GAUUAUGCGAGCUUUAGGGACAUGAGGAUCACCCAUGUUCGUCUUAUUAGUCUAAAUACACUGACAUACCUAAAUCU [JMF 54] (puzzle: Sensor v3, turn-off variant 1) | 17.3 nM | 15.9 nM | 13.6 nM | – | – | –
GUCACAUGGACAUAGGAUCACAUGAGGAUCACCCAUGUGACUAACAAGCUUUUUGUUCGUCUUAUGUCUAUGUGAAA [Stov1/16-B1] (Eterna round: R97, puzzle: Sensor, turn-off variant 1) | – | – | – | 13.5 nM | 11.6 nM | –
UUAAAUCAUGUAGGAUAUGCGUGGGAAAACUAUGCAGAAGGACAUGAGGAUCACCCAUGUGCUUCCGUCUGAGAACAGACGGUA [Mat - Exclusion NG 1 - Mod of JL - D15] (Eterna round: R96, puzzle: Exclusion NG 1) | – | – | – | 226 nM | 87.8 nM | 76.1 nM
GCAGUGUCAGGAUAUUCGAGUUCGAGUGAAAGCUUGAGCUUGAAGAAGGGACAUGAGGAUCACCCAUGUGCUGU [-28.7, -27.7 kcal, A 27%, 1bis-(ca)1bis] (Eterna round: R97, puzzle: Exclusion 4) | – | – | – | 117 nM | 42.1 nM | –
CGUCAUCAAGUCAGGAUAUCGUCAAAUCAAUCAGGCGAGAAGGGACAUGAGGAUCACCCAUGUCGACUCAUCAC [Ex4 #3] (Eterna round: R97, puzzle: Brourd's mod of Exclusion 4) | – | – | – | 24.9 nM | 21.3 nM | –
GUAAUUAAUGUAGGAUAUGCAAGGCGAACCUAAGCAGAAGGACAUGAGGAUCACCCAUGUAUUGCGGUCUGCGUUCAGUUCGCU [salish99_ExNG1_r4_011] (Eterna round: R96, puzzle: Exclusion NG 1) | – | – | – | 9.41 nM | 10.2 nM | 6.39 nM
AAAUAGGUAGGAUAUACAUGAGGAUCACCCAUGUGCUGCCGCGCGUCAAUCUCUUCACGUAGAAGGGCCCAGAC [Reveara] (Eterna round: R97, puzzle: Exclusion 3) | – | – | – | 13.1 nM | 14.1 nM | –
UAGAAGUCAGGAUAUCCAUGGCGGCACUUGCGUGGUGGCGUGGAGAAGGGACAUGAGGAUCACCCAUGUAAAGG [salish99-ex4-045] (Eterna round: R96, puzzle: Exclusion 4) | – | – | – | 192 nM | 100 nM | 63.1 nM
UUGUUAUAUGUAGGAUAUGCGUAUUAUUAUUGGGCAGAAGGACAUGAGGAUCACCCAUGUAUGUUGUUGUUAUAUAUUAUAUAU [Title] (Eterna round: R96, puzzle: Exclusion NG 1) | – | – | – | 47.2 nM | 44.4 nM | 34 nM
CCGAGCAGACGGAGAUCCAACAUGAGGAUCACCCAUGUCUCAAAAGCUUUUUGCUCGUCUUAUCCUCCUCUGUUCUC [Legedi] (puzzle: Sensor v3, turn-off variant 1) | 27.6 nM | 200 nM | 25.7 nM | – | – | –
UAGUGAGCGUGAGGAAUAUACAUGAGGAUCACCCAUGUUUGCUACUAUCUUGCUCGUCUUAUAACAACAAUUAACUG [mod-hagla-honey#50] (Eterna round: R97, puzzle: Sensor, turn-off variant 1) | – | – | – | 14.8 nM | 16.9 nM | –
UCGGCGCGAGGAUAUGCGGUUUGUGCUUUGGGCCCUGGCGUACAUGAGGAUCACCCAUGUAGAAGGCGUGUUGC [Apr-15 SS2-49] (puzzle: Exclusion 2) | – | 17.9 nM | – | – | – | –
CCGAAGUGGCGGUCCUAUGACAUGAGGAUCACCCAUGUACUUCGCCACAAGCUUUUUGCUCAUCUUAUAGUUCUCGG [Ator] (puzzle: Sensor v3, turn-off variant 1) | 16.4 nM | 25.1 nM | 16.4 nM | – | – | –
UGAAACCUAGGAUAUACAUGAGGAUCACCCAUGUAAUGUAGUAUAGUAUAUGUAAGAUGUAGAAGGAGGAAUGU [LRO-Excl05-27-Smart Aleck] (Eterna round: R97, puzzle: Exclusion 3) | – | – | – | 30.9 nM | 34.9 nM | –
CUGGACCCGGUAGGAUAUAUUGUGGGCGGGCGUGGAACGACAUGAGGAUCACCCAUGUGAUUGAGGUAGAAGGGCCGAGAGGUU [Excl-NG2-LRO18] (Eterna round: R96, puzzle: Exclusion NG 2) | – | – | – | 52.7 nM | 61.8 nM | 33.8 nM
